# Results reported in US20260166115A1, “POLYUNSATURATED FATTY ACID-BOUND ALPHA FETOPROTEIN PROMOTES IMMUNE SUPPRESSION BY ALTERING HUMAN DENDRITIC CELL METABOLISM” (The Regents of the University of California, priority 2022, published 2026).
# B1: tAFP: tumor-derived alpha fetoprotein, SEQ ID NO: 1; commercially available (Bio-Rad) (protein, listed as Homo sapiens)
# chain: MKWVESIFLIFLLNFTESRTLHRNEYGIASILDSYQCTAEISLADLATIFFAQFVQEATYKEVSKMVKDALTAIEKPTGDEQSSGCLENQLPAFLEELCHEKEILEKYGHSDCCSQSEEGRHNCFLAHKKPTPASIPLFQVPEPVTSCEAYEEDRETFMNKFIYEIARRHPFLYAPTILLWAARYDKIIPSCCKAENAVECFQTKAATVTKELRESSLLNQHACAVMKNFGTRTFQAITVTKLSQKFTKVNFTEIQKLVLDVAHVHEHCCRGDVLDCLQDGEKIMSYICSQQDTLSNKITECCKLTTLERGQCIIHAENDEKPEGLSPNLNRFLGDRDFNQFSSGEKNIFLASFVHEYSRRHPQLAVSVILRVAKGYQELLEKCFQTENPLECQDKGEEELQKYIQESQALAKRSCGLFQKLGEYYLQNAFLVAYTKKAPQLTSSELMAITRKMAATAATCCQLSEDKLLACGEGAADIIIGHLCIRHEMTPVNPGVGQCCTSSYANRRPCFSSLVVDETYVPPAFSDDKFIFHKDLCQAQGVALQTMKQEFLINLVKQKPQITEEQLEAVIADFSGLLEKCCQGQEQEVCFAEEGQKLISKTRAALGV
# Key:
# [1] = tested on: dendritic cells (DCs); conditions: tAFP-treated DCs; cited from earlier work
# [2] = tested on: iDCs differentiated from monocytes; experiment: Microarray gene expression and g:Profiler pathway analysis of treated DCs; format: cell-based, human
# From the text: OVA, nAFP, and tAFP-treated DC were lysed, and total mRNA was obtained for microarray (Affymetrix HG-U133A). DE genes were uploaded in g:Profiler in R Studio for pathway analysis and visualization (Raudvere, U. et al. g:Profiler: a web server for functional enrichment analysis and conversions of gene lists (2019 update). Nucleic Acids Res. 47, W191-W198 (2019)).
# [3] = tested on: mDCs generated in vitro; experiment: scMEP single-cell metabolic regulome profiling by CyTOF; format: cell-based, human
# Protocol: scMEP analysis was performed as recently described (Hartmann et al., 2021). In short, antibodies targeting metabolic features were conjugated in-house using an optimized conjugation protocol (Hartmann et al., 2019) and validated on multiple sample types. Cells were prepared for scMEP analysis by incubation with small molecules to be able to assess biosynthesis rates of DNA, RNA and protein, cisplatin-based live/dead staining, PFA-based cell fixation and cryopreservation (dx.doi.org/10.17504/protocols.io.bkwkkxcw). Next, cells were stained with metabolic antibodies in a procedure that includes surface staining for 30 min at RT, PFA-fixation for 10 min at RT, MeOH-based permeabilization for 10 min on ice, intracellular staining for 1 h at RT and DNA intercalation (dx.doi.org/10.17504/protocols.io.bntnmeme). Finally, cells were acquired on a CyTOF2 mass cytometer (Fluidigm). Protein targets and antibody information used in scMEP are listed in supplementary table 2. Raw mass spectrometry data were pre-processed, de-barcoded and imported into R environment using the flowCore package (version 2.0.1) (Hahne et al., 2009). Values were arcsin h transformed (cofactor 5) and normalized (Hartmann et al., 2021) for downstream analyses based on previously reported workflow (Nowicka et al., 2017).
# [4] = tested on: monocyte-derived dendritic cells (DCs); experiment: Flow cytometry phenotype of in vitro differentiated DCs treated with OVA, nAFP or tAFP; format: cell-based, human
# From the text: (§1) DCs were differentiated in vitro similarly as previously described (Pardee, A. D., Shi, J. & Butterfield, L. H. Tumor-Derived α-Fetoprotein Impairs the Differentiation and T Cell Stimulatory Activity of Human Dendritic Cells. J Immunol. 193, 5723-5732 (2014)). In brief, cryopreserved PBMC were thawed and CD14*monocytes were magnetically labeled using CD14 MicroBeads (Miltenyi, Cat #130-050-201) and isolated by LS columns (Miltenyi, Cat #130-042-401) per the manufacturer instructions. Viable eluted cells were enumerated using trypan blue on a Nexcelom Cellometer Spectrum. To generate iDCs, monocytes were stimulated for 5 days in the presence of 800 IU/mL of rGM-CSF (Miltenyi, Cat #130-093-862) and 500 IU/mL of rIL-4 (Miltenyi, Cat #130-095-373) as well as OVA, nAFP, or tAFP in CellGenix® GMP DC media (Cat #20801-0500) 37° C. at 5% CO2. Lastly, we performed an additional 24-hour stimulation with 1000 IU/mL of rIFN-γ (Peprotech, Cat #300-02) and 250 ng/mL of LPS (Sigma Aldrich, Cat #L2630-10MG) to produce mDCs. To harvest cells, DC were detached using TrypLE™ Select (Gibco, Cat #12563011) for 15 minutes at 37° C. and then washed several times with cold PBS.
# (§2) SCENITH was performed as described in (Arguello et al., 2020). SCENITH™ reagents kit (inhibitors, puromycin and antibodies) were obtained from www.scenith.com/try-it and used according to the provided protocol for in-vitro derived myeloid cells. Briefly, control and tol-moDC cultures at desired timepoints, were treated for 18 minutes with Control (DMSO), 2-Deoxy-Glucose (2-DG; 100 mM), Oligomycin (0; 1 μM), a combination of 2DG and Oligomycin (DGO) or Harringtonine (H; 2 μg/mL). Following metabolic inhibitors, Puromycin (final concentration 10 μg/mL) was added to cultures for 17 min. After puromycin treatment, cells were detached from wells using TypLE Select (Fisher Scientific, 505914419), washed in cold PBS and stained with a combination of Human TureStain FcX (Biolegend, 422301) and fluorescent cell viability dye (Biolegend, 423105) for 10 min 4° C. in PBS. Following PBS wash step, primary antibodies against surface markers were incubated for 25 min at 4° C. in Brilliant Stain Buffer (BD Biosciences, 563794). Next cells were fixed and permeabilized using True-Nuclear Transcription Factor Buffer Set (Biolegend, 424401) as per manufacturer instructions. Intracellular staining of puromycin and protein targets was performed for 1 h in diluted (10×) permeabilization buffer at 4° C. Finally, data acquisition was performed using the Cytek Aurora flow cytometer. Primary conjugated antibody information used in SCENITH panel is listed in supplementary table 1. All antibodies were titrated to reduce spillover and increase resolution using single stained moDC (generated as described above) samples. Unstained cell controls used for autofluorescence extraction were generated for each time point, culture conditions (control, vitd3-tol-moDC and dexa-vitd3-tol-moDC) and metabolic inhibitor treatments (C, 2DG, O, DGO). Samples were unmixed using reference controls generated in combination with stained Ultracomp beads (Fisher Scientific, 01-2222-41) and stained cells using the SpectroFlo Software v2.2.0.1. The unmixed FCS files were used for data processing and analysis using FlowJo (BD, version 10.7.1). Manually gated CD14-HLA-DR*CD86+ cells were used for downstream analysis. gMFI expression values were imported into R environment for correlation and heatmap analysis using the below described R packages.
# [5] = tested on: monocyte-derived dendritic cells (DCs); experiment: Glucose and lactate measurements in DC cultures; format: cell-based, human
# From the text: as §1
# Glucose and lactate were measured by applying approximately 5 μL of supernatant to Clarity BG1000 Blood Glucose strips (Cat #75840-798) and meter (Cat #75840-800) system or the Lactate Plus strips (Nova Biomedical©, Cat #40813) and meter version 2 (Nova Biomedical©, Cat #62624) system. Each meter was quality checked with control glucose and lactate solutions and CellGenix™ media before each experiment.
# [6] = tested on: monocyte-derived dendritic cells (DCs); experiment: SCENITH single-cell energetic metabolism profiling of treated DCs; format: cell-based, human; conditions: mDC HLA-DR+, CD206+, CD86+
# From the text: as §1, §2
# [7] = tested on: iDCs; experiment: Intracellular Zn measurement by flow cytometry; format: cell-based, human; conditions: P=0.0293 vs nAFP, P=0.0228 vs OVA
# Protocol: Intracellular Zn was quantified by flow cytometry using the Zinc Assay Kit (Cell-based) (Abcam, Cat #ab241014). Monocytes were differentiated to iDCs as described above in the presence of OVA, nAFP, tAFP, or ZnSO4. […] Cells were stained with LD Aqua for 10 minutes at RT. Cells were washed in 1× Assay Buffer, then stained in 100 μL of Assay Buffer+0.2 μL of Zn Probe for 30 minutes at 37° C. Cells were then washed twice with 1× Assay buffer then stained with HLA-DR-APC-H7 (BD, Clone: GF6-6, Cat #561358, Lot #0023290, 0339025), CD86-BV785 (BioLegend, Clone: IT2.2, Cat #305441, Lot #B277560), CD206 PE-Cy7 (Biolegend, Clone: 15-2, Cat #321123, Lot #B331254), and CD14-BUV805 (BD, Clone: M5E2, Cat #612903, Lot #0297714), in Brilliant Stain Buffer (BD Horizon, Cat #566349, Lot #0121427) for 20 minutes at 4° C. Cells were washed twice in FACS Buffer and fixed in 1% paraformaldehyde (Thermo Scientific, Cat #J19943-K2, Lot #195273, diluted in PBS) for at least 30 minutes before acquisition on a BD LSRFortessam X-50.
molecule,measurement,setting,value
B1,mitochondrial mass,[1],decreased
same,ACS gene,[2],did not reach statistical significance
same,SLC2A3 (GLUT3) gene expression,[2],increase
same,gene expression of CPT1A,[2],increased
same,"genes involved in fatty acid metabolism (PDH, ACLY, ACC, FASN, LPL, CD36, CACT)",[2],downregulation
same,pathways associated with lipid metabolism,[2]; tAFP compared to nAFP,significantly downregulated
same,upregulated gene pathways,[2]; tAFP compared to nAFP,"stress response to metal ions, particularly zinc"
same,ASCT2,[3],unchanged
same,"ETC/TCA parameters ATP5A, CS and SDHA",[3],lower
same,GLS,[3],tended to be lower
same,amino acid pathway proteins CD98 and G6PD,[3],significantly decreased
same,"expression of DC markers CD206, PD-L1, CD11b, CD1c, HLA-DR, CD86 and CD11c",[3],reduced expression
same,"glycolysis proteins (GLUT1, GLUT3, LDHA, ENO1, GAPDH, and MTC1)",[3],modest differences that were not statistically significant
same,levels of cytochrome C (CytC),[3],elevated
same,"FAO or FAS proteins CD36, CDPT1A, HADHA, and ACLY",[3]; mDCs,decreased
same,expression of pAMPK,[4],decreased expression
same,expression of the fatty acid transporter CD36,[4],decline
same,"co-expression of multiple activation markers (HLA-DR, CD206, CD86, ICOSLG/CD275)",[4]; Boolean analysis,decreased co-expression
same,DC CD86 expression,[4]; tAFP-treated DC,trend for reduced
same,DC CD206 expression,[4]; tAFP-treated DC,limited
same,DC HLA-DR expression,[4]; tAFP-treated DC,limited
same,intracellular glucose,[5],increase
same,glucose uptake,[5]; DC,take up more glucose
same,glucose in the culture supernatants,[5]; day 6,significantly less
same,"lactate secreted, relative to OVA-treated DCs","[5]; media of treated DCs, all HDs",approximately twice
same,fatty acid and glutaminolysis (FAAO) (SCENITH),[6],reduction
same,glycolysis (SCENITH),[6],dramatic increase
same,mitochondrial dependency (SCENITH),[6],reduction
same,increase in Zn MFI compared to nAFP or OVA-treated iDCs,[7],~30%
